Measurements as given in doi:10.1101/2021.04.22.440356 (bioRxiv, 2021).

Target: T1, yeast ubiquitin hydrolase 1 (YUH1) (S. cerevisiae, UniProt P35127 1-236)
T1 sequence (looked up): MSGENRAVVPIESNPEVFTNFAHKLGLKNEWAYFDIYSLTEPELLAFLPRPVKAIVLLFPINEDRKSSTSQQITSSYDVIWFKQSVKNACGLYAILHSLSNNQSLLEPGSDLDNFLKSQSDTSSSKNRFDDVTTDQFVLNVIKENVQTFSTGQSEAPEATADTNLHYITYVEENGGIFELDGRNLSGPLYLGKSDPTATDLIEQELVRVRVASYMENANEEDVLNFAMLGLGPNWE
Experiment: NMR 1H-15N TROSY spectra of the complex

B1: yeast ubiquitin (natural protein)
chain: not shown
modifications: 2H,15N-labelled
Question: Does B1 bind?
Answer: binds
